# Test results published in patent US20180002379.
# What was measured:
# Assay in all cases: cell_activity
# [1] = system: ZFN SBS#46696 (synthetic)
# [2] = system: ZFN SBS#20505 (synthetic)
# [3] = system: ZFN SBS#46697 (synthetic)
# [4] = system: ZFN SBS#46693 (synthetic)
# [5] = system: ZFN SBS#46705 (synthetic)
# ZFN SBS#8266 (synthetic) = system: ZFN SBS#8266 (synthetic)
# [6] = system: ZFN SBS#46698 (synthetic)
# [7] = system: ZFN SBS#46700 (synthetic)
# [8] = pair 46700:46705 at CCR2, GFP 0.05
sequence,measurement,setting,value
AAACTGCAAAAA (double strand) [CCR2 right half-site],activity,"[1]; pair 46693:46696 at CCR2, background level, no SELEX evidence of binding the CCR2 adenine",0.01 % indel
same,activity,"[2]; pair 8266:20505 at CCR2, K562",5.23 % indel
same,activity,"[3]; pair 46693:46697 at CCR2, no SELEX evidence of binding the CCR2 adenine",0.07 % indel
AAACTGCAAAAG (double strand) [CCR5 right half-site (20505)],activity,"[2]; pair 8266:20505, K562",29.9 % indel
AGGATGAGGATGACCAGCATGTTGTTGC (double strand) [CCR5 left target],activity,"[4]; pair 46693:46697, K562, GFP 0.01",10 % indel
ATAAACTGCAAAAGGCTGAAGAGCATGA (double strand) [CCR5 right target],activity,"[1]; pair 46693:46696, K562, printed 417, 632 of 15162 reads",4.17 % indel
same,activity,"[3]; pair 46693:46697, K562",10 % indel
CAAAAAGCTGAAGTGCTT (double strand) [CCR2 shifted right half-site],activity,[5]; [8],0.08 % indel
GATGAGGATGAC (double strand) [CCR5 left half-site (8266)],activity,"ZFN SBS#8266 (synthetic); pair 8266:20505, K562",29.9 % indel
GGTCGTCCTCATCTTAAT (double strand) [CCR2 shifted left half-site],activity,[6]; pair 46698:46705 at CCR2,0 % indel
same,activity,[7]; [8],0.08 % indel
GTCGTCCTCATC (double strand) [CCR2 left half-site],activity,"[4]; pair 46693:46697 at CCR2, p 0.0013",0.07 % indel
same,activity,"ZFN SBS#8266 (synthetic); pair 8266:20505 at CCR2, K562",5.23 % indel
TGCAAAAGGCTGAAGAGCATGACTGACA (double strand) [CCR5 shifted right 6F],activity,"[5]; pair 46700:46705, K562, GFP 0.03",27.4 % indel
TTATCAGGATGAGGATGACCAGCATGTT (double strand) [CCR5 shifted left 4F],activity,"[6]; pair 46698:46705, K562",23.8 % indel
TTATCAGGATGAGGATGACCAGCATGTT (double strand) [CCR5 shifted left 6F],activity,"[7]; pair 46700:46705, K562",27.4 % indel
